According to US20120058906A1 (published 2012):

T1: rHuman Erythropoietin R/Fc Chimera, CF (R&D Systems Cat#963-ER) (human, UniProt P19235 25-250)
T1 construct: Bought Fc chimera; also called EPO R/Fc; Epo R; not shown: Fc of the bought chimera
T1 sequence: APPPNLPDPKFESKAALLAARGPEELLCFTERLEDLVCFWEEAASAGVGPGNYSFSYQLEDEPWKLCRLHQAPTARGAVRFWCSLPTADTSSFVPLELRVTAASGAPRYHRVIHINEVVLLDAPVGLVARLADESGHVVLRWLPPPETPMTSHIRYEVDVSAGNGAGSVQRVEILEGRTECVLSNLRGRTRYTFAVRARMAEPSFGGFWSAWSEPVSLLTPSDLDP

B1: Fab VH1-46_IGHD6-6*01_IGHJ1*01_S102A_S103P_S104F & L6_IGKJ1*01_S31K (Fab, V domains shown)
VH: QVQLVQSGAEVKKPGASVKVSCKASGYTFTSYYMHWVRQAPGQGLEWMGIINPSGGSTSYAQKFQGRVTMTRDTSTSTVYMELSSLRSEDTAVYYCAREEYAPFSAEYFQHWGQGTLVTVSS
VL: EIVLTQSPATLSLSPGERATLSCRASQSVSKYLAWYQQKPGQAPRLLIYDASNRATGIPARFSGSGSGTDFTLTISSLEPEDFAVYYCQQRSNWPPWTFGQGTKVEIKR
notes: Fab
B2: Fab VH1-46_IGHD3-10*01_IGHJ4*01 & B3_IGKJ1*01 (Fab, V domains shown)
VH: QVQLVQSGAEVKKPGASVKVSCKASGYTFTSYYMHWVRQAPGQGLEWMGIINPSGGSTSYAQKFQGRVTMTRDTSTSTVYMELSSLRSEDTAVYYCAREYYYGSGSYYNDYFDYWGQGTLVTVSS
VL: not shown
notes: also called IGHV1-46*01

What was measured:
[1] = biological target: T2, rHuman ErbB2/Fc Chimera, CF (R&D Systems Cat#1129-ER) (human, UniProt P04626 23-652); test: ECL (MSD multi-spot), antigen on plate, Fab 10 nM
T2 construct: Bought Fc chimera; also called HER2/neu; not shown: Fc of the bought chimera

[2] = biological target: T3, rHuman HGF R/c-MET/Fc Chimera, CF (R&D Systems Cat#358-MT/CF) (human, UniProt P08581 25-932); test: ECL (MSD multi-spot), antigen on plate, Fab 10 nM
T3 construct: Bought Fc chimera; also called HGF R/Fc; not shown: Fc of the bought chimera

[3] = biological target: T4, Recombinant Human DLL4 (R&D Systems Cat#1506-D4/CF) (human, UniProt Q9NR61 27-524); test: ECL (MSD multi-spot), antigen on plate, Fab 10 nM
T4 construct: Bought recombinant protein; also called delta-like protein 4

[4] = biological target: T5, rHuman IGF-1 sR (insulin-like growth factor-1 soluble receptor), CF (R&D Systems Cat#391-GR) (human, UniProt P08069 31-932); test: ECL (MSD multi-spot), antigen on plate, Fab 10 nM
T5 construct: Bought soluble receptor; also called IGF-R1

[5] = biological target: T6, rHuman P-Cadherin/Fc Chimera, CF (R&D Systems Cat#861-PC) (human, UniProt P22223 108-654); test: ECL (MSD multi-spot), antigen on plate, Fab 10 nM
T6 construct: Bought Fc chimera; also called CDH3; not shown: Fc of the bought chimera

[6] = biological target: T7, rHuman EGF R/Fc Chimera, CF (R&D Systems Cat#344-ER) (human, UniProt P00533 25-645); test: ECL (MSD multi-spot), antigen on plate, Fab 10 nM
T7 construct: Bought Fc chimera; also called ErbB-1; not shown: Fc of the bought chimera

[7] = biological target: T1, rHuman Erythropoietin R/Fc Chimera, CF …; test: ECL (MSD multi-spot), antigen on plate, Fab 10 nM
[8] = biological target: T8, rHuman Notch-1/Fc Chimera, CF (R&D Systems Cat#3647-TK) (human, UniProt P46531 19-526); test: ECL (MSD multi-spot), antigen on plate, Fab 10 nM
T8 construct: Bought Fc chimera; not shown: Fc of the bought chimera

[9] = biological target: T9, rHuman CD44/Fc Chimera, CF (R&D Systems Cat#3660-CD) (human, UniProt P16070 21-220); test: ECL (MSD multi-spot), antigen on plate, Fab 10 nM
T9 construct: Bought Fc chimera; not shown: Fc of the bought chimera

[10] = biological target: T2, rHuman ErbB2/Fc Chimera, CF (R&D …); test: ECL (MSD multi-spot), antigen on plate, Fab 0.4 nM
[11] = biological target: T3, rHuman HGF R/c-MET/Fc Chimera, CF (R&D …); test: ECL (MSD multi-spot), antigen on plate, Fab 0.4 nM
[12] = biological target: T4, Recombinant Human DLL4 (R&D Systems …); test: ECL (MSD multi-spot), antigen on plate, Fab 0.4 nM
[13] = biological target: T5, rHuman IGF-1 sR (insulin-like growth …); test: ECL (MSD multi-spot), antigen on plate, Fab 0.4 nM
[14] = biological target: T6, rHuman P-Cadherin/Fc Chimera, CF (R&D …); test: ECL (MSD multi-spot), antigen on plate, Fab 0.4 nM
[15] = biological target: T7, rHuman EGF R/Fc Chimera, CF (R&D …); test: ECL (MSD multi-spot), antigen on plate, Fab 0.4 nM
[16] = biological target: T1, rHuman Erythropoietin R/Fc Chimera, CF …; test: ECL (MSD multi-spot), antigen on plate, Fab 0.4 nM
[17] = biological target: T8, rHuman Notch-1/Fc Chimera, CF (R&D …); test: ECL (MSD multi-spot), antigen on plate, Fab 0.4 nM
[18] = biological target: T9, rHuman CD44/Fc Chimera, CF (R&D Systems …); test: ECL (MSD multi-spot), antigen on plate, Fab 0.4 nM
[19] = biological target: T10, rHuman ErbB2/Fc Chimera, CF (R&D Systems Cat#1129-ER) (human, UniProt P04626 23-652); test: ECL (MSD multi-spot), antigen spotted on plate; Fab 352.5 nM; blank spot 494
T10 construct: Bought reagent; also called HER2/neu; human epidermal growth factor 2 receptor; Fc part of the bought chimera not given

[20] = biological target: T11, rHuman CD44/Fc Chimera, CF (R&D Systems Cat#3660-CD) (human, UniProt P16070 21-220); test: as above
T11 construct: Bought reagent; Fc part of the bought chimera not given
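Further: blank spot per well as comparator with Hit at signal to blank ratio of 4 or more.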

Row | Binder | ECL signal [1] [ECL signal] | ECL signal [2] [ECL signal] | ECL signal [3] [ECL signal] | ECL signal [4] [ECL signal] | ECL signal [5] [ECL signal] | ECL signal [6] [ECL signal] | ECL signal [7] [ECL signal] | ECL signal [8] [ECL signal] | ECL signal [9] [ECL signal] | ECL signal [10] [ECL signal] | ECL signal [11] [ECL signal] | ECL signal [12] [ECL signal] | ECL signal [13] [ECL signal] | ECL signal [14] [ECL signal] | ECL signal [15] [ECL signal] | ECL signal [16] [ECL signal] | ECL signal [17] [ECL signal] | ECL signal [18] [ECL signal] | ECL signal [19] | ECL signal [20]
1 | B1 | 303 | 271 | 29800 | 214 | 240 | 297 | 392 | 388 | 352 | 159 | 119 | 1260 | 65 | 151 | 175 | 217 | 197 | 190 |  | 
2 | B2 |  |  |  |  |  |  |  |  |  |  |  |  |  |  |  |  |  |  | 514 | 556
